This note sets out measurements from patent US20250297032A1 (CONCEPT TO MEDICINE BIOTECH, published 2025).

One may read the EC50 as the midpoint of the concentration-response curve. Higher therefore signals lower potency in that assay.

The target of assay [1] is T1, human FAPα-His tag (Sino biological) (human, UniProt Q12884 26-760).
T1 construct: Bought protein; also called human FAPα-His protein; not shown: His tag
T1 sequence (looked up): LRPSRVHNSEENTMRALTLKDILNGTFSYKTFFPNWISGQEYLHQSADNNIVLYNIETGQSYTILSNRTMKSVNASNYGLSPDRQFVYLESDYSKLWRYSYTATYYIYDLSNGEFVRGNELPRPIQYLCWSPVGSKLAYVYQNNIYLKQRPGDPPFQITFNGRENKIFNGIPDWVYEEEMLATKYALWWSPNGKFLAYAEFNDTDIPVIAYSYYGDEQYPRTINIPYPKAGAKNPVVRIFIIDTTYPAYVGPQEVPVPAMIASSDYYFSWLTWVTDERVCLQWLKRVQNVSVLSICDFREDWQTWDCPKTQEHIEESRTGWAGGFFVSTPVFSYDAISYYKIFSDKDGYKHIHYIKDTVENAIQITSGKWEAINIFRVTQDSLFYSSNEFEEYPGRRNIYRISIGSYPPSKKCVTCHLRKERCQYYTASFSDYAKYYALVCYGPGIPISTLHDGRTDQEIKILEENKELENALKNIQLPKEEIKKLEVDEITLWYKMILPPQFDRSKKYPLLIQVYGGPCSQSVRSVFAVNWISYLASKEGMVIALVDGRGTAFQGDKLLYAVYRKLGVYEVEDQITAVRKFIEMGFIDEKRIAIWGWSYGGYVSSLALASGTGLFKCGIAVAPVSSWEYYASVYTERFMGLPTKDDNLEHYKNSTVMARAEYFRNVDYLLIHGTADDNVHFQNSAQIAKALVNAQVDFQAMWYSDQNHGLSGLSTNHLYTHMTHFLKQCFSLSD
Nature of the assay: ELISA, coated human FAPα-His. How it is done:
Briefly, microtiter plates were coated with human FAPα-His protein at 0.5 ug/ml in PBS, 100 μl/well at 4° C. overnight, then blocked with 150 μl/well of 1% BSA. Three-fold dilutions of tested antibodies starting from 1 μg/ml were added to each well and incubated for 1 hour at 37° C. The plates were washed with PBS/Tween and then incubated with Anti-Human IgG (H&L) (GOAT) Antibody Peroxidase Conjugated for 30 mins at 37° C. After washing, the plates were developed with TMB substrate and analyzed by spectrophotometer at OD 450 nm. […] FAP-4B9 clone from Roche was served as positive control which labeled as FAPα-BMK.
A general note: An ELISA detects its analyte on a solid surface through an enzyme-linked reagent.

Assay [2] deals with T2, human FAPα on CHO-K1-hFAPα cells (human, UniProt Q12884 1-760).
T2 construct: whole, on cells; also called cell-surface FAPα
T2 sequence (looked up): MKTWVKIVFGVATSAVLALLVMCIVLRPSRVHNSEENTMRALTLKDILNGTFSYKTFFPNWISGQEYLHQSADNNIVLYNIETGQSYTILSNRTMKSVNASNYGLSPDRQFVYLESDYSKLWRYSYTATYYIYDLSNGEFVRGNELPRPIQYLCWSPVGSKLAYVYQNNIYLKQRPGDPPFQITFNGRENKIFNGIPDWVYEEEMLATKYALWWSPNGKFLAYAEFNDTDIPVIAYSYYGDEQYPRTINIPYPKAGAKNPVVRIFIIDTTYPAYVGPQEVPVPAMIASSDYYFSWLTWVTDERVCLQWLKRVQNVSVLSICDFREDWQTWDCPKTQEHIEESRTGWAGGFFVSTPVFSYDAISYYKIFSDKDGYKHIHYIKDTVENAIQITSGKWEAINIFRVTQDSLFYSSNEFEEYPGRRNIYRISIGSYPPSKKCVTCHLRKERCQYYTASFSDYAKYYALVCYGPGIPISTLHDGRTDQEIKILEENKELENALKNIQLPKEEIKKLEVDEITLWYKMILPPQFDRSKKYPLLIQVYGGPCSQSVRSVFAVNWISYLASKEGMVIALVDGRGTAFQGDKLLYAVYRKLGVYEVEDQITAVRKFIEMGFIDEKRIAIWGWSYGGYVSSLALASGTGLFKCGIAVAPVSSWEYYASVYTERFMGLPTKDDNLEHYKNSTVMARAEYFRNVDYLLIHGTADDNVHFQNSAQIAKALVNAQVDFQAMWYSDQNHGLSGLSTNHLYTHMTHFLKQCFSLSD
Nature of the assay: flow cytometry on CHO-K1-hFAPα cells. The protocol: To evaluate the cell-based binding property to human FAPα, the tested antibodies were analyzed for their binding to CHO-K1-hFAPα by FACS. A total number of 1×10⁵ CHO-K1-hFAPα cells in each well were incubated with 4-fold serial diluted antibodies starting from 3 μg/ml for 30 minutes at 4° C. in FACS buffer. After wash by FACS buffer, PE conjugated-anti-human IgG antibody was added to each well and incubated at 4° C. for 30 minutes. After wash, MFI of PE was evaluated by MACSQuant Analyzer 16.
(In general: Flow cytometry measures light scatter and fluorescence of single cells or particles in a stream.)

Assay [3] addresses T1, human FAPα-His tag (Sino biological). The experiment in a line: competitive ELISA on coated human FAPα; competitor (detected): FAP-I37-Bio. How it is done:
Competitive ELISA was carried out to classify the FAPα mAbs based on the binding epitope to human FAPα.
Briefly, microtiter plates were coated with human FAPα proteins at 0.5 μg/ml in PBS, 100 μl/well at 4° C. overnight, then blocked with 150 μl/well of 1% BSA. Serial dilutions of chimeric antibodies as well as biotin-conjugated reference mAb were added to each well and incubated for 1 hour at RT. The plates were washed with PBS/Tween and then incubate with streptavidin-HRP for 15 mins at RT. After washing, the plates were developed with TMB substrate and analyzed by spectrophotometer at OD 450 nm. According to the competition ability to reference mAbs (Benchmark, or “BMK”), all tested FAPα mAbs binds to the similar epitope as shown in Table 5.

B1: G14 (antibody, V domains shown)
VH: QVQLLESGGGVVQPGRSLRLSCAASGFTFSSYAMHWVRQAPGKGLEWVAFISHDGNRNSYADSVRGRFTISRDNSKNTLYLQMNSLRAEDTAVYYCARDLGYYNGFSYWGQGTLVTVSA
VL: DIVMTQSPSSVSASVGDRVTITCRASQGISSWLAWYQQKPGKAPKLLIYAASSLQSGVPSRFSGSGSGTDFTLTISSLQPEDFATYYCQQANSFPPTFGPGTKVDIK
notes: Full human antibody from a Fab phage library; Tested as a mAb (detected with anti-human IgG, captured on Protein A); also called FAP-G14; FAP-G14-Bio (biotin-conjugated form)
Take B1: the EC50 is 4.64 ng/mL in assay [1] and 0.073 ng/mL in assay [2]. Besides, the “OD 450 nm” value in assay [3] stood at 0.457 OD 450 nm.

B2: J40 (antibody, V domains shown)
VH: EVQLLESGGGLVQPGGSLRLSCAASGFTFSSYAMSWVRQAPGKGLEWVSAISGSGGSTYYADSVKGRFTISRDNSKNTLYLQMNSLRTDDTAVYYCARDLTTSTGWESWGQGTLVTVSA
VL: NIQMTQSPSSVSASVGDRVTITCRASQGISSWLAWYQQKPGKAPKLLIYAASSLQSGVPSRFSGSGSGTDFTLTISSLQPEDFATYYCQQANSFPPTFGQGTKLEIK
notes: Tested as a mAb; also called FAP-J40; FAP-J40-Bio (biotin-conjugated form)
Regarding B2, the results for the EC50 in assay [1] and in assay [2] were 3.87 ng/mL and 0.025 ng/mL, respectively. Also, in assay [3], the “OD 450 nm” value amounted to 0.435 OD 450 nm.

B3: I30 (antibody, V domains shown)
VH: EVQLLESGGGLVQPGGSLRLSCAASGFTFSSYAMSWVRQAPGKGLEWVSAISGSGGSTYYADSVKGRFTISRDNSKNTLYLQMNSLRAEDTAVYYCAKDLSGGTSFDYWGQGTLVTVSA
VL: AIRLTQSPSSVSASVGDRVTITCRASQGISSWLAWYQQKPGKAPKLLIYAASSLQSGVPSRFSGSGSGTDFTLTISSLQPEDFATYYCQQANSFPPTFGGGTKVEIK
notes: Tested as a mAb; also called 130; FAP-I30
As for B3, the EC50 in assay [1] worked out at 3.42 ng/mL; in assay [2], 0.08 ng/mL. In addition, the “OD 450 nm” value in assay [3] is 0.219 OD 450 nm.

B4: I37 (antibody, V domains shown)
VH: QLQLVESGGGLVQPGGSLRLSCAASGFTFSSYAMSWVRQAPGKGLEWVSAISGSGGSTYYADSVKGRFTISRDNSKNTLYLQMNSLRAEDTAVYYCARDKPWGGSFDYWGQGTLVTVSA
VL: DIQLTQSPSSLSASVGDRVTITCRASQGISSWLAWYQQKPGKAPKLLIYAASSLQSGVPSRFSGSGSGTDFTLTISSLQPEDFATYYCQQANSFPVTFGPGTKVDIK
notes: Tested as a mAb; also called FAP-I37
With B4, the EC50 in assay [1] is 5.4 ng/mL; in assay [2], 0.057 ng/mL. Further, the “OD 450 nm” value in assay [3] came to 0.602 OD 450 nm.
